Results: article PMC5395944, “Structural basis of inhibition of lipid-linked oligosaccharide flippase PglK by a conformational nanobody” (Scientific Reports, 2017)
“And” between values parts separate entries of the source, which are not always exact repeats. Identical values can stand only once.

How the values were obtained:
[1] = molecular target: T1, PglK-E510Q (C. jejuni, UniProt Q0P9C4, E510Q); assay: crystal structure; settings: both partners purified
T1 construct: also called PglK mutant E510Q; source: E. coli BL21-Gold (DE3), purified from membranes in detergent (NiNTA, size exclusion chromatography)

[2] = molecular target: PglK wild type (lipid-linked oligosaccharide flippase, ABC transporter) from Campylobacter jejuni (C. jejuni, UniProt Q0P9C4); assay: cross-linking; 0.1% glutaraldehyde for 30 min, then high-mass MALDI mass spectrometry; PglK 18 μM and Nb 18 μM (1:2 PglK-homodimer:Nb), 10 mM HEPES pH 7.5, 100 mM NaCl, 0.016% LMNG; without nucleotides or with 5 mM MgCl2 and 5 mM ADP or ATP; settings: both partners purified

B1: Nb87 (inhibitory conformational nanobody against PglK) (VHH)
VHH: QVQLQESGGGLVQPGGSLRLSCAASGFTFSSYAMSWVRQAPGKGLEWVSAITSGGGSTSYSDAVKGRFTISRDNAKNTLYLQMNSLKPEDTAVYYCAKGYVVDFLDLAEYDSWGQGTQVTVSS
notes: source: E. coli WK6, periplasmic extract, purified (NiNTA)
stoichiometry N [1]: 1 Nb87 per PglK homodimer
stoichiometry N [2]: 1 Nb87 per PglK homodimer and 2 Nb87 per PglK homodimer
